Laboratory results taken from patent publication US20180030136A1.

Key:
[1] = target: cynomolgus ICOS (cynomolgus); assay: Biacore, cyno ICOS
[2] = target: human ICOS (human) (UniProt Q9Y6W8); assay: Biacore, human ICOS
Sequence of human ICOS (human) (Q9Y6W8 21-140 limits assumed): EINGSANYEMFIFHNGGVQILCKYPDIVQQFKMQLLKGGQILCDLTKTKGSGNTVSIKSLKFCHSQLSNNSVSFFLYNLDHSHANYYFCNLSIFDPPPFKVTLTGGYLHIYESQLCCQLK

B1: ICOS mAb clone 314.8 (antibody, from another filing, V domains shown)
VH: QVQLQQPGTELMKPGASVKLSCKASGYTFTTYWMHWVKQRPGQGLEWIGEIDPSDSYVNYNQNFKGKATLTVDKSSSTAYIQLSSLTSEDSAVYFCARSPDYYGTSLAWFDYWGQGTLVTVST
VL: DIVMTQAAPSVPVTPGESVSISCRSSKSPLHSNGNIYLYWFLQRPGQSPQLLIYRMSNLASGVPDRFSGSGSGTTFTLKISRVEAEDVGVYYCMQHLEYPYTFGGGTKLEIK
Kd [1]: 9.3 nM | Kd [2]: 17 nM
